Results taken from patent US20210238569A1.

Tests used:
[1] = biological target: protease-activated RNA polymerase (PA-RNAP) including the HCV protease substrate (UniProt P00806)
[2] = biological target: protease-activated RNA polymerase (PA-RNAP) including the TEV protease substrate (UniProt P00806)
[3] = test system: target substrate sequence ENLYFESA
[4] = test system: TEV protease wild-type substrate sequence ENLYFQSA

protease-activated RNA polymerase (PA-RNAP) including the TEV protease substrate, sequence (P00806 whole entry, looked up): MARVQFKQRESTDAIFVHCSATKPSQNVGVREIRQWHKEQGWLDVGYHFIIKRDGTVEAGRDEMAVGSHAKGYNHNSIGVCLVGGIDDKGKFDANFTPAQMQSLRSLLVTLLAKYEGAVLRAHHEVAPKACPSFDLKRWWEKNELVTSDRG
protease-activated RNA polymerase (PA-RNAP) including the HCV protease substrate, sequence (P00806 whole entry, looked up): as above

Row | Substance | Western blot of PA-RNAP sensor activation (proteolysis) [1] | Western blot of PA-RNAP sensor activation (proteolysis) [2] | cleavage of substrate sequence [3] | cleavage of substrate sequence [4]
1 | hepatitis C virus (HCV) protease, constitutively active construct that includes the NS4a cofactor peptide | the PA-RNAP sensor is proteolyzed to a smaller band of anticipated molecular weight only in the presence of a cognate protease that can cleave the peptide sequence in each PA-RNAP linker | – | – | –
2 | tobacco etch virus (TEV) protease, expressed as MBP-TEV fusion protein | – | the PA-RNAP sensor is proteolyzed to a smaller band of anticipated molecular weight only in the presence of a cognate protease that can cleave the peptide sequence in each PA-RNAP linker | does not cleave the target substrate sequence ENLYFESA (SEQ ID NO: 25) | Wild-type TEV protease cleaves the substrate sequence ENLYFQSA (SEQ ID NO: 24)
